In patent US20230357447A1 (JANUX THERAPEUTICS, published 2023):
Where two headings read alike, the source gives them in different places. Ends that are not written are not given here.

Tests used:
[1] = target: T1, Ab-12, anti-PD-L1xCD28 non-masked antibody in Vh format; assay: competition ELISA: peptide titrated against 5 nM Ab-12; binding of Ab-12 to captured biotinylated CD28 antigen is read; table prints 'IC50 nM' but the axis is Log [Peptide, uM] and the curve falls between Log 0.5 and Log 2
T1 construct: also called PDL1xCD28 non-masked (Vh)

[2] = target: T1, Ab-12, anti-PD-L1xCD28 non-masked …; assay: competition ELISA: peptide titrated against 5 nM Ab-12; binding of Ab-12 to captured biotinylated CD28 antigen is read
[3] = target: T1, Ab-12, anti-PD-L1xCD28 non-masked …; assay: as above; remark: listed apart in the source
[4] = target: T1, Ab-12, anti-PD-L1xCD28 non-masked …; assay: as above; remark: listed apart in the source
[5] = target: T2, anti-CD28 scFv (SEQ ID NO: 9); assay: competition ELISA: peptide titrated against 2 nM anti-CD28 scFv; binding of the scFv to captured biotinylated CD28 antigen is read
T2 construct: also called Anti-CD28 scFv (VH-linker 1-VL)

[6] = target: T2, anti-CD28 scFv (SEQ ID NO: 9); assay: as above; remark: listed apart in the source
[7] = target: T2, anti-CD28 scFv (SEQ ID NO: 9); assay: as above; remark: listed apart in the source
[8] = target: T2, anti-CD28 scFv (SEQ ID NO: 9); assay: as above; remark: listed apart in the source
[9] = target: T1, Ab-12, anti-PD-L1xCD28 non-masked …; assay: competition ELISA: peptide titrated against 5 nM Ab-12; binding of Ab-12 to captured biotinylated CD28 antigen is read; remark: listed apart in the source
[10] = target: T2, anti-CD28 scFv (SEQ ID NO: 9); assay: competition ELISA: peptide titrated against 2 nM anti-CD28 scFv; binding of the scFv to captured biotinylated CD28 antigen is read; remark: listed apart in the source
[11] = target: T1, Ab-12, anti-PD-L1xCD28 non-masked …; assay: competition ELISA: peptide titrated against 5 nM Ab-12; binding of Ab-12 to captured biotinylated CD28 antigen is read; table prints 'IC50 nM' but the axis is Log [Peptide, uM]

| IC50 [1] | IC50 [2] | IC50 [3] | IC50 [4] | IC50 (read off the curve) [5] | IC50 [6] | IC50 [7] | IC50 [8] | IC50 (read off the curve) [9] | IC50 (read off the curve) [10] | IC50 [11] | Binder |
| --- | --- | --- | --- | --- | --- | --- | --- | --- | --- | --- | --- |
| 21 nM |  |  |  |  |  |  |  |  |  |  | GYCHYWGDMVMWCG (cysteine pairing not given here; also: biotinylated, site not given here, also called Peptide-12_200 nM) [Peptide-12] |
|  | 2450 nM | 2430 nM | 2620 nM | ~2000 nM | 1370 nM | 1650 nM | 1630 nM |  |  |  | MDWCPRERWVDCFF [Peptide-51] |
|  | 2240 nM | 1860 nM | 2630 nM |  |  |  | 1280 nM | ~2000 nM | ~2000 nM | 1.54 nM | MDWCPRERWVDCFF (cysteine pairing not given here; also: biotinylated, site not given here) [Peptide-9] |
